What was measured:
human Protein S [1] = molecular target: T1, human Protein S (human, UniProt P07225 42-676); assay: Biacore (SPR), Protein S immobilized, 25 °C
T1 construct: Called 'full length Protein S' / 'human full-length Protein S'; It was coated on plates (ELISA), Eu-labeled (LANCE) or immobilized on a chip (Biacore); also called PS; full length Protein S
T1 sequence: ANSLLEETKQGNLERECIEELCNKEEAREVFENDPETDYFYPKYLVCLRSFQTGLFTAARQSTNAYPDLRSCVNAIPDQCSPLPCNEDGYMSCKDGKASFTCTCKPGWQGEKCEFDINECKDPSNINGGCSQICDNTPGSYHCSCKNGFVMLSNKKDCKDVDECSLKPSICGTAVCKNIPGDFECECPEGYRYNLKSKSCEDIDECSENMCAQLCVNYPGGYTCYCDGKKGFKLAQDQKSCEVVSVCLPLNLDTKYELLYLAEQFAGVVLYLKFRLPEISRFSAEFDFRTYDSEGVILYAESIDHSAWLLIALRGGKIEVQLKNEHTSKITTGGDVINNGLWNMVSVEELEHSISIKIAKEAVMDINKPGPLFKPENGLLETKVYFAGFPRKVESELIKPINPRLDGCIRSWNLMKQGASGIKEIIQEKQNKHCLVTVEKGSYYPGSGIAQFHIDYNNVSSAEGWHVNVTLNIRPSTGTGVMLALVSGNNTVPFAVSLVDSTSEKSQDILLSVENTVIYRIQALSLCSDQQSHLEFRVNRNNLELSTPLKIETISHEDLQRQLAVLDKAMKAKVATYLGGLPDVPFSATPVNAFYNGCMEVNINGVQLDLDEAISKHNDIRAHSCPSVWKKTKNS
Description: (§1) Protein S affinity also was determined via Biacore (Biacore 3000 or Biacore T200) using human full-length Protein S and human GAS6. Briefly, 1000 RU of Protein S or GAS6 were immobilized on a CMS chip. In order to probe the kinetics of Protein S binding peptides to Protein S, the peptides were injected at various concentrations in a HBS-buffer containing 3 mM CaCl₂ and 1% DMSO to the flow cell and allowed to interact with the immobilized proteins on the sensor chip. The chip could be regenerated with 4 M MgCl₂ in HBS-buffer. Sensorgrams were fitted to a Langmuir binding model for the determination of kₒₙ and koff and the calculation of KD. Peptides were tested on their specificity to Protein S with peptide binding studies on the anti-target GAS6.

human GAS6 = molecular target: T2, human GAS6 (human, UniProt Q14393 49-678, limits assumed); assay: Biacore (SPR), GAS6 immobilized on the chip; sensorgrams reviewed visually
T2 construct: Immobilized on the Biacore chip; also called protein encoded by the Growth Arrest Specific-6 gene; anti-target
T2 sequence (looked up): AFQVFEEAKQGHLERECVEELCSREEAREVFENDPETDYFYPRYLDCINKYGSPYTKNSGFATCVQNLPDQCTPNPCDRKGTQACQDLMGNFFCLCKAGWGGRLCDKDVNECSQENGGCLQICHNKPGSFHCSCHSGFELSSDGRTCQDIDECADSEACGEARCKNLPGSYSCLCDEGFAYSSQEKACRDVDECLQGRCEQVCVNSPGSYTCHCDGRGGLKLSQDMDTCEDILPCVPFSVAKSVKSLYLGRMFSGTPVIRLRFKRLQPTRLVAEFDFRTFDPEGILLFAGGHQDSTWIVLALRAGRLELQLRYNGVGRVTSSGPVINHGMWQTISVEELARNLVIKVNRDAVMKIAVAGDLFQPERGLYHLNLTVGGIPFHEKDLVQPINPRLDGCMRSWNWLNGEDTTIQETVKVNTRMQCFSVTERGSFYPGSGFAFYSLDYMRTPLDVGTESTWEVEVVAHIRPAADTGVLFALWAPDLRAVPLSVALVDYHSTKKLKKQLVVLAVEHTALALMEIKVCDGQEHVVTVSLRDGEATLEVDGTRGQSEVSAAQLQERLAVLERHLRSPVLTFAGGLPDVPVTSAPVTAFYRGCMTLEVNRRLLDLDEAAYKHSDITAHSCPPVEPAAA
Description: as §1
Interactions with the anti-target GAS6 were measured via Biacore (surface plasmon resonance) (see Example 2). The maximum signal from the interaction of the peptides with human GAS6 was much lower than the signals obtained with Protein S as interaction partner. Kinetic analysis of the low GAS6 binding signals was error prone, and sensorgrams were reviewed visually to estimate anti-target binding. […]

human Protein S [2] = molecular target: T1, human Protein S; assay: competition ELISA; Protein S coated; competitor biotinylated tracer JBS0684
Description: The competition (IC50) ELISA was performed using biotinylated tracer peptide JBS0684 to compete for Protein S-binding with candidate peptides. Peptides that compete with the tracer bind the same region of Protein S as the tracer (and each other). Ninety-six well PolySorp plates (Nunc) were coated with 3 μg/mL Protein S in coating buffer (15 mM Na₂CO₃, 35 mM NaHCO₃, pH 9.6) over night. […] Plates were then washed three times with HNaT. JBS0684 was applied at a concentration corresponding to the EC90 value determined in the binding ELISA. A competitor stock solution of peptide (10 mM) was diluted 1/33.3 in HNaT without HSA, and a serial 1/3 dilution was prepared with HNaT with 3% DMSO. The dilution was further diluted with the biotinylated tracer peptide in a ratio of 1:6 (20 μl competitor dilution and 100 μl tracer peptide). The mixture of competitor and tracer peptide was applied to the Protein S-coated microtiter plate and incubated for 1.5 hours. The plates were washed three times with HNaT. Peptide-Protein S binding was detected by applying HRP-conjugated streptavidin to the microtiter plate, incubating the mixture for one hour, washing the plate three times with HNaT, applying TMB (3,3′5,5′-Tetramethylbenzidin), and detecting the subsequent chromogenic conversion of TMB by HRP. IC50 measurements of peptides are provided herein (see, e.g., Table 3).

Kd (human Protein S [1]): 6 nM | koff (human Protein S [1]): 0.00148 s⁻¹ | kon (human Protein S [1]): 248000 M⁻¹ s⁻¹ | binding result (human GAS6): no binding (tested: 1 µM) | IC50 (human Protein S [2]): 2.5 nM
B1: JBS2572 (peptide)
peptide: Ac-TGLVSAGWYDYNFDHYREFT-NH2
notes: also called parent peptide JBS2572
